B3: ERN1-Tyk2(C)-HA (other)
chain: IFGSTSTVTLPETLLFVSTLDGSLHAVSKRTGSIKWTLKEDPVLQVPTHVEEPAFLPDPNDGSLYTLGSKNNEGLTKLPFTIPELVQASPCRSSDGILYMGKKQDIWYVIDLLTGEKQQTLSSAFADSLCPSTSLLYLGRTEYTITMYDTKTRELRWNATYFDYAASLPEDDVDYKMSHFVSNGDGLVVTVDSESGDVLWIQNYASPVVAFYVWQREGLRKVMHINVAVETLRYLTFMSGEVGRITKWKYPFPKETEAKSKLTPTLYVGKYSTSLYASPSMVHEGVAVVPRGSTLPLLEGPQTDGVTIGDKGECVITPSTDVKFDPGLKSKNKLNYLRNYWLLIGHHETPLSASTKMLERFPNNLPKHRENVIPADSEKKSFEEVINLVDQTSENAPTTVSRDVEEKPAHAPARPEAPVDSMLKDMATIILSTFLLIGWVAFIITYPLSMHQQQQLQHQQFQKELEKIQLLQQQQQQLPFHPPGDTAQDGELLDTSGPYSESSGTSSPSTSPRASNHSLCSGSSASKAGSSPSLEQDDGDEETSVVIVGKISFCPKDVLGHGAEGTIVYRGMFDNRDVAVKRILPECFSFADREVQLLRESDEHPNVIRYFCTEKDRQFQYIAIELCAATLQEYVEQKDFAHLGLEPITLLQQTTSGLAHLHSLNIVHRDLKPHNILISMPNAHGKIKAMISDFGLCKKLAVGRHSFSRRSGVPGTEGWIAPEMLSEDCKENPTYTVDIFSAGCVFYYVISEGSHPFGKSLQRQANILLGACSLDCLHPEKHEDVIARELIEKMIAMDPQKRPSAKHVLKHPFFWSLEKQLQFFQDVSDRIEKESLDGPIVKQLERGGRAVVKMDWRENITVPLQTDLRKFRTYKGGSVRDLLRAMRNKKHHYRELPAEVRETLGSLPDDFVCYFTSRFPHLLAHTYRAMELCSHERLFQPYYFHEPPEPQPPVTPDALAAAGGSITQLSHLGQGTRTNVYEGRLRVEGSGDPEEGKMDDEDPLVPGRDRGQELRVVLKVLDPSHHDIALAFYETASLMSQVSHTHLAFVHGVCVRGPENSMVTEYVEHGPLDVWLRRERGHVPMAWKMVVAQQLASALSYLENKNLVHGNVCGRNILLARLGLAEGTSPFIKLSDPGVGLGALSREERVERIPWLAPECLPGGANSLSTAMDKWGFGATLLEICFDGEAPLQSRSPSEKEHFYQRQHRLPEPSCPQLATLTSQCLTYEPTQRPSFRTILRDLTRVQPHNLADVLTVNRDSPAVGPTTFHKRYLKKIRDLGEGHFGKVSLYCYDPTNDGTGEMVAVKALKADCGPQHRSGWKQEIDILRTLYHEHIIKYKGCCEDQGEKSLQLVMEYVPLGSLRDYLPRHSIGLAQLLLFAQQICEGMAYLHAHDYIHRDLAARNVLLDNDRLVKIGDFGLAKAVPEGHEYYRVREDGDSPVFWYAPECLKEYKFYYASDVWSFGVTLYELLTHCDSSQSPPTKFLELIGIAQGQMTVLRLTELLERGERLPRPDKCPCEVYHLMKNCWETEASFRPTFENLIPILKTVHEKYQGQAPSVFSVCLEYPYDVPDYA
notes: Fusion protein expressed in transfected HEK293-T cells; also called ERN1-Tyk2-HA; ERN1-Tyk2(C) fusion construct

Key:
ERN1(D123P)-Tyk2(C)-HA = molecular target: T1, ERN1(D123P)-Tyk2(C)-HA (human); assay: luciferase reporter interaction assay in HEK293-T cells, vehicle or 1 µg/ml tunicamycin
T1 construct: Mutation in the luminal domain of ERN1; also called pcDNA5/FRT/TO-ERN1(D123P)-Tyk2(C)-HA; ERN1(D123P)-Tyk2(K)-HA
Procedure: (§1) After transfection, cells were either vehicle (DMSO) treated or treated with 1 μg/ml tunicamycin (final concentration).

ERN1(K599A)-Tyk2(C)-HA = molecular target: T2, ERN1(K599A)-Tyk2(C)-HA (human); assay: as above
T2 construct: also called pcDNA5/FRT/TO-ERN1(K599A)-Tyk2(C)-HA
Procedure: as §1

ERN1-Tyk2(C)-HA = molecular target: B3; assay: luciferase reporter interaction assay in HEK293-T cells, tunicamycin 0-0.04-0.2-1-5 µg/ml
Procedure: After transfection, cells were treated with 0-0.04-0.2-1-5 μg/ml tunicamycin, final concentration. The luciferase data are presented as fold induction relative to the signal obtained in cells transfected with unfused gp130 (empty prey; transfection a) and treated with the same concentration tunicamycin. Expression of the different fusion proteins was confirmed using Western blot.

[1] = molecular target: T3, unfused gp130 receptor fragment (pMG1) (human, UniProt P40189 760-918); assay: luciferase reporter interaction assay in HEK293-T cells, tunicamycin 0-0.5-1-2 µg/ml
T3 construct: Negative control prey; also called empty prey
T3 sequence: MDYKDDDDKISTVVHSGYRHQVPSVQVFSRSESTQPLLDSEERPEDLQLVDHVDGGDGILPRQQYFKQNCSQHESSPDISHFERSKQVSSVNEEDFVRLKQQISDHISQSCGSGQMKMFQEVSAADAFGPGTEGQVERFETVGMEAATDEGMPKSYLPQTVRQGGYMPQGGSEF
Procedure: In a first experiment, cells were transfected with the following combinations of plasmids (500 ng of the kinase fusion construct, 100 ng of the gp130 fusion construct and 50 ng of the luciferase reporter construct) according to the methods described above:
After transfection, cells were treated with 0-0.5-1-2 μg/ml tunicamycin, final concentration.

HA-Tyk2(C)-RTp66 = molecular target: T4, HA-Tyk2(C)-RTp66 (HIV-1); assay: luciferase reporter interaction assay in HEK293-T cells
T4 construct: also called pSVSport-HA-Tyk2(C)-RTp66; RTp66 kinase fusion construct

HA-Tyk2(C)-SERT = molecular target: T5, HA-Tyk2(C)-SERT (human); assay: as above
T5 construct: Fusion protein expressed in transfected HEK293-T cells; also called pSVSport-HA-Tyk2(C)-SERT; SERT kinase fusion construct

B1: flag tag-ERN1-gp130 (other)
chain: IFGSTSTVTLPETLLFVSTLDGSLHAVSKRTGSIKWTLKEDPVLQVPTHVEEPAFLPDPNDGSLYTLGSKNNEGLTKLPFTIPELVQASPCRSSDGILYMGKKQDIWYVIDLLTGEKQQTLSSAFADSLCPSTSLLYLGRTEYTITMYDTKTRELRWNATYFDYAASLPEDDVDYKMSHFVSNGDGLVVTVDSESGDVLWIQNYASPVVAFYVWQREGLRKVMHINVAVETLRYLTFMSGEVGRITKWKYPFPKETEAKSKLTPTLYVGKYSTSLYASPSMVHEGVAVVPRGSTLPLLEGPQTDGVTIGDKGECVITPSTDVKFDPGLKSKNKLNYLRNYWLLIGHHETPLSASTKMLERFPNNLPKHRENVIPADSEKKSFEEVINLVDQTSENAPTTVSRDVEEKPAHAPARPEAPVDSMLKDMATIILSTFLLIGWVAFIITYPLSMHQQQQLQHQQFQKELEKIQLLQQQQQQLPFHPPGDTAQDGELLDTSGPYSESSGTSSPSTSPRASNHSLCSGSSASKAGSSPSLEQDDGDEETSVVIVGKISFCPKDVLGHGAEGTIVYRGMFDNRDVAVKRILPECFSFADREVQLLRESDEHPNVIRYFCTEKDRQFQYIAIELCAATLQEYVEQKDFAHLGLEPITLLQQTTSGLAHLHSLNIVHRDLKPHNILISMPNAHGKIKAMISDFGLCKKLAVGRHSFSRRSGVPGTEGWIAPEMLSEDCKENPTYTVDIFSAGCVFYYVISEGSHPFGKSLQRQANILLGACSLDCLHPEKHEDVIARELIEKMIAMDPQKRPSAKHVLKHPFFWSLEKQLQFFQDVSDRIEKESLDGPIVKQLERGGRAVVKMDWRENITVPLQTDLRKFRTYKGGSVRDLLRAMRNKKHHYRELPAEVRETLGSLPDDFVCYFTSRFPHLLAHTYRAMELCSHERLFQPYYFHEPPEPQPPVTPDALSRGSGGSGGSTVVHSGYRHQVPSVQVFSRSESTQPLLDSEERPEDLQLVDHVDGGDGILPRQQYFKQNCSQHESSPDISHFERSKQVSSVNEEDFVRLKQQISDHISQSCGSGQMKMFQEVSAADAFGPGTEGQVERFETVGMEAATDEGMPKSYLPQTVRQGGYMPQGGSELSTSLYKKAGYLPQTVRQGGYMPQ
notes: Fusion protein expressed in transfected HEK293-T cells; also called ERN1-gp130 fusion construct; pMG2C-ERN1
ERN1(D123P)-Tyk2(C)-HA
  binding result: no binding
ERN1(K599A)-Tyk2(C)-HA
  binding result: no binding

B2: flag-tag-ERN1cyt-gp130 (other)
chain: MDYKDDDDKISEFFCPKDVLGHGAEGTIVYRGMFDNRDVAVKRILPECFSFADREVQLLRESDEHPNVIRYFCTEKDRQFQYIAIELCAATLQEYVEQKDFAHLGLEPITLLQQTTSGLAHLHSLNIVHRDLKPHNILISMPNAHGKIKAMISDFGLCKKLAVGRHSFSRRSGVPGTEGWIAPEMLSEDCKENPTYTVDIFSAGCVFYYVISEGSHPFGKSLQRQANILLGACSLDCLHPEKHEDVIARELIEKMIAMDPQKRPSAKHVLKHPFFWSLEKQLQFFQDVSDRIEKESLDGPIVKQLERGGRAVVKMDWRENITVPLQTDLRKFRTYKGGSVRDLLRAMRNKKHHYRELPAEVRETLGSLPDDFVCYFTSRFPHLLAHTYRAMELCSHERLFQPYYFHEPPEPQPPVTPDALPSRGSGGSGGSTVVHSGYRHQVPSVQVFSRSESTQPLLDSEERPEDLQLVDHVDGGDGILPRQQYFKQNCSQHESSPDISHFERSKQVSSVNEEDFVRLKQQISDHISQSCGSGQMKMFQEVSAADAFGPGTEGQVERFETVGMEAATDEGMPKSYLPQTVRQGGYMPQGGSELSTSLYKKAGYLPQTVRQGGYMPQ
notes: also called pMG2C-ERN1cyt; gp130 fusion containing only the cytoplasmic portion of ERN1
ERN1-Tyk2(C)-HA
  binding result: no binding

## B3
[1]
  binding result: no binding

B4: flag tag-gp130-VAMP1 (other)
chain: MDYKDDDDKISTVVHSGYRHQVPSVQVFSRSESTQPLLDSEERPEDLQLVDHVDGGDGILPRQQYFKQNCSQHESSPDISHFERSKQVSSVNEEDFVRLKQQISDHISQSCGSGQMKMFQEVSAADAFGPGTEGQVERFETVGMEAATDEGMPKSYLPQTVRQGGYMPQGGSELSTSLYKKVGMSAPAQPPAEGTEGTAPGGGPPGPPPNMTSNRRLQQTQAQVEEVVDIIRVNVDKVLERDQKLSELDDRADALQAGASQFESSAAKLKRKYWWKNCKMMIMLGAICAIIVVVIVSKYRCPTFLYKVV
notes: also called pMG1-VAMP1; VAMP1 gp130 fusion construct
HA-Tyk2(C)-RTp66
  binding result: no binding
HA-Tyk2(C)-SERT
  binding result: binds

— patent US20190330310A1 (VIB VZW, published 2019)
